Data: paper PMC10660547 (Antibodies, 2023)

Experiments:
[1] = molecular target: T1, Phl p 7 (with a C-terminal tryptophan residue, biotinylated) (Phleum pratense (timothy grass), UniProt O82040, biotin (EZ-Link Maleimide-PEG2-Biotin)); experiment: SPR; biotinylated Phl p 7 immobilised on an SA chip, 50 nM HAPPID1 Fab captured by it, aδNb072 flowed over (200 nM to 3 nM); 25 °C, 10 mM HEPES pH 7.4, 150 mM NaCl, 0.05% P20, 5 mM CaCl2; conditions: both partners purified
T1 construct: Phl p 7, polcalcin family 2-EF hand protein of timothy grass (Phleum pratense) pollen; C-terminal tryptophan residue added to aid spectrophotometric detection; also called biotinylated Phl p 7; timothy grass pollen allergen Phl p 7; source: E. coli BL21(DE3), purified (HisTrap FF Crude, SEC Superdex 75)
T1 sequence (O82040 whole entry, looked up): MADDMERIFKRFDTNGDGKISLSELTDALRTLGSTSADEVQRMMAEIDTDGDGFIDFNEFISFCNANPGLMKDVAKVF

[2] = molecular target: anti-IgD nanobody 072 (not stated (a llama and an alpaca were immunised)); experiment: SPR; aδNb072 (100 nM) captured by an anti-His-tag antibody on a CM5 chip; Fab flowed over, two-fold dilution series 200 nM to 3 nM; Biacore T200, 25 °C, 10 mM HEPES pH 7.4, 150 mM NaCl, 0.05% P20; KD from koff/kon
Sequence of anti-IgD nanobody 072 (not stated (a llama and an alpaca were immunised)) (heavy, as listed by the source): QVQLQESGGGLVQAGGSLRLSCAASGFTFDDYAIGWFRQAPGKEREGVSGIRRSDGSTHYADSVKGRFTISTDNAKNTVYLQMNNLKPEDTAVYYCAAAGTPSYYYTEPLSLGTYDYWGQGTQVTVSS

Row | binding result [1] | Kd [2] | koff [2] | kon [2] | Binder
1 | binds | 1.4 nM | 0.000822 s⁻¹ | 586000 M⁻¹ s⁻¹ | HAPPID1 Fab with a C-terminal glycine4-serine linker and SpyTag on the heavy chain (Fab, V domains shown, as the heavy chain of m2 (VH of clone 102.1F10 with human Cδ1); as the light chain of m2 (lambda light chain of the HAPPI1 antibodies); Derived from pVITRO1-HAPPID1; also called SpyTagged HAPPID1 Fab; not shown: glycine4-serine linker and SpyTag, C-terminal, kept) VH: QVQLVQSGAEVRNPGASVKVSCKASGYTFTSYAIHWVRQAPGHRLEWVGRINTDNGNTKYSQKFHGRVALSRDTSASTTYMDLSSLNSEDTAVYYCARAFYYSSGVMFDSWGQGALVTVSS VL: QSALTQPPSVSGAPGQRVSISCTGGSSNFGAGYDVHWYQQLPATAPKLLIYGNNNRPSGVPDRFSGSKSGTSASLAITGLQAEDEGDYFCQSFDTSLSGWIFGGGTKLTVL
2 | – | 3.64 nM | 0.000829 s⁻¹ | 228000 M⁻¹ s⁻¹ | HAPPIE1 Fab (SpyTagged) (Fab, V domains shown) VH: QVQLVQSGAEVRNPGASVKVSCKASGYTFTSYAIHWVRQAPGHRLEWVGRINTDNGNTKYSQKFHGRVALSRDTSASTTYMDLSSLNSEDTAVYYCARAFYYSSGVMFDSWGQGALVTVSS VL: QSALTQPPSVSGAPGQRVSISCTGGSSNFGAGYDVHWYQQLPATAPKLLIYGNNNRPSGVPDRFSGSKSGTSASLAITGLQAEDEGDYFCQSFDTSLSGWIFGGGTKLTVL
